In article PMC5465079:
Blank lines part the entries; values can stand above or below the substance they belong to.

Key:
Assay in all cases: SEC; purified enzymes that were not crosslinked, on Superdex 200; native mass estimated from the elution
[1] = molecular target: ADHR (Lactobacillus kefiri DSM 20587)
[2] = molecular target: SCR1 (Candida parapsilosis CCTCC M203011)
[3] = molecular target: SCR3 (Candida parapsilosis CCTCC M203011)
[4] = molecular target: wild-type (S)-carbonyl reductase II (Candida parapsilosis CCTCC M203011)

- stoichiometry N [1]: 4
Substance: ADHR (enzyme)

Substance: SCR1 (enzyme)
- stoichiometry N [2]: 4

Substance: SCR3 (enzyme)
- stoichiometry N [3]: 4

- stoichiometry N [4]: 4
Substance: wild-type (S)-carbonyl reductase II (enzyme)
